Measurements: the nanobody polyreactivity screen of Harvey et al. (2022)

Assay: yeast display, Sf9 membrane polyspecificity reagent, FACS + sequencing; frameworks hold sequencing errors
Method in brief: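 Galactose-induced (36–48 hours) yeast carrying a synthetic nanobody display library were exposed to 10% biotinylated, detergent-solubilized Sf9 membrane reagent at 4 °C for 1 hour. FACS followed streptavidin microbead enrichment, using low and high (top ~1%) gates for expression (anti-HA) and reagent binding (streptavidin). Colony PCR, MiSeq 2 × 250 sequencing and CDR-length filtering followed. Labels for polyreactivity reflect the gate of origin.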

Sequence | polyreactivity (PSR sort gate)
QVQLVESGGGLVQAGGSLRLSCAASGFIFGGFTMGWSRQAPGNERELVAAISRSGGSTYYADSVKGRFTISRDNAKNTVYLQMNSLKPEDTAVYYCATLNYYGEVEYWGQGTQVTVSS | high polyreactivity
QVQLVESGGGLVQAGGSLRLSCAASGFIFGGYAMGWYRHAPRKERELVAAISRSGGSTYYADSVKGRFTISRDNAKNTVYLQMNSLKPEDTAVYYCNAVPRRQGFNYWGQGTQVSVSS | high polyreactivity
QVQLVESGGGLVQAGGSLRLSCAASGFIFGGYAMGWYRQAPGKERELVAAISWSGDNTYYADSVKGRFTISRDNAKNTVYLQMNSLKPEDTAVYYCAADSYGQEYDYWGQGTQVTVSS | low polyreactivity
QVQLVESGGGLVQAGGSLRLSCAASGFIFGGYVMGWYRQAPGKERELVAAITWSGGSTYYADSVKGRFTISRDNAKHTVYVQLNSQKREDTAVYYCNSRVPARLWRWSPYPVDYWGQGTQVTLSS | high polyreactivity
QVQLVESGGGLVQAGGSLRLSCAASGFIFGIYDMGWYRQAPGKERELVAAITYSGSSTYYADSVKGRFTISRDNAKNTVYLQMNSLKQEDTAVYYCNKTPWDWDYWDPEYYYWGQGTQVTVSS | high polyreactivity
QVQLVESGGGLVQAGGSLRLSCAASGFIFGKYAMGWYRQAPGKERELVAAITSDGRTYYADSVKGRFTISRDNAKNTVYLQMNSLKPEDTAVYYSAATRYGHRYYYRPYEYWGQGSQVTVSS | high polyreactivity
QVQLVESGGGLVQAGGSLRLSCAASGFIFGLYAIGWYRQAPGKERELVAAISRSGGSTYYADSVKGRFTISRDNAKNTVYLQMNSLKPEDTAVYYCNARYSWPRATWYDYWGQGTQVTVSS | high polyreactivity
QVQLVESGGGLVQAGGSLRLSCAASGFIFGNNDMGWYRPAPGKERELVAAISNSGGRTYYADSVKGRFTISRDNAKNTVYLQMNSLKPEDTAVYYCAKAYRPPGYDSWGQGTQVTVSS | high polyreactivity
QVQLVESGGGLVQAGGSLRLSCAASGFIFGNNDRGWYRQAPGKERELVAGITWSGSSTYYADSVKGRFTISRDNAKNTVYLQMNSLKPEDTAVYYCIRVFTWRYGYRYEYWGQGTQVTVSS | high polyreactivity
QVQLVESGGGLVQAGGSLRLSCAASGFIFGPYAMGWYRTAPGKERELVAAITYSSGSTYYADSVKGRFTISRDNAKNTVYLQMNSLKPEDTAVYYCNAEFWYETLYEYDYWGQGTQVTVSS | high polyreactivity
QVQLVESGGGLVQAGGSLRLSCAASGFIFGQYAMGWYRQAPGKERELVAAISRSGGSTYYADSVKGRFTISRDNAKNTVYLQMNSLKPEDTAVYYCNRRARGDSYRLDYWGQGTQVTVSS | high polyreactivity
QVQLVESGGGLVQAGGSLRLSCAASGFIFGRYAMGWYRQAPGKERELVAAITASGGRTYYADSVKGRFTISRDNAKNTVYLQMNSLKPEDTAVYYCNTPSLWCGEDYWGQGTQVTVSS | high polyreactivity
QVQLVESGGGLVQAGGSLRLSCAASGFIFGRYAMGWYRQAPGKERELVAGISSRGGRTYYADSVKGRFTISRDTAKNPVFLQINSLKPEDTAVYYCGAAGLTDYVRYDYWGQGTQVTVSS | high polyreactivity
QVQLVESGGGLVQAGGSLRLSCAASGFIFGRYAMVWYRQAPGKERHFVASISWSGGSTHYADSVKGRFTISREKAKNTVYLHMNSLKPVDTAVYYCARGFPPYRVTHMNYWGQGTLVTVSS | high polyreactivity
QVQLVESGGGLVQAGGSLRLSCAASGFIFGRYTMGWYRQAPWKERELVAAISGSGGRTYYADSVKGRFTISRDNAKNTVYLQMNSLKPEDTSVYYCATYGYFYYDYWGQGTQVTVSS | high polyreactivity
QVQLVESGGGLVQAGGSLRLSCAASGFIFGRYTMGWYRQATGKERELVAAISGSDVTTYYADSVKGRFTISRDNAKNTVYLQMNSLKPEDTAVYYCAADSPWAYYEYDYWGQGTHVTVSS | low polyreactivity

Sequence | polyreactivity (PSR sort gate)
QVQLVESGGGLVQAGGSLRLSCAASGFIFGSNAMGWYRQAPGKERELVAAISRSGGSTYYADSVKGRFTISRDNAKNTVYLQMNSLKPEHTAVYYCASYLYKSRYLPEYDYWGQGTQVTVSS | high polyreactivity
QVQLVESGGGLVQAGGSLRLSCAASGFIFGSYTMGWYRQAPGKERELVAAITTGGSTNYADSVKGRFTISRDNAKNTVYLQMNSLKPEDTAVYYCAARTVGFYRYDYWGQGTQVTVSS | low polyreactivity
QVQLVESGGGLVQAGGSLRLSCAASGFIFGTNAMGWYRQAPGKERELVAAISIGDSTYYADSVKGRFTISRDNAKNTVYVQKNSLKPEDTAVYYCNARAYSIYLLQKTYAFNYWGQGTQVTVSS | low polyreactivity
QVQLVESGGGLVQAGGSLRLSCAASGFIFGTYAMGWYRQAPGKERELVAAISVGGGSTYYADSVKGRFTISRDNAKNSVYLQMNSLKPEDTAVYYCNALYNDHFSWFSFGYWGQGTQVTVSS | low polyreactivity
QVQLVESGGGLVQAGGSLRLSCAASGFIFGTYAMGWYRQAPGKERELVAAISVGGGSTYYADSVKGRFTISRDNAKNTVYLQMNSLKPEDTAVYYCAAVQLYQKHQITYVAHEYWGQGTQVTVSS | low polyreactivity
QVQLVESGGGLVQAGGSLRLSCAASGFIFGTYVMGWYRQAPGKERELVAAISESGGRTYYADSVKGRFTISRDNAKNTVYLQMNSLKPEDTAVYYCAKVRHIRFHYYYGYQSYYYWGQGTQVTVSS | high polyreactivity
QVQLVESGGGLVQAGGSLRLSCAASGFIFGWYAMGWYRQAPGKERELVAVIRSGGRTNYADSVKGRFTISRDNAKNTVYLQMNSLKPEDTAVYDCNAVGGRGYGGGFWGQGTQVTVSS | high polyreactivity
QVQLVESGGGLVQAGGSLRLSCAASGFIFGYNAMGWYRQAPGKERELVAAIRAGDGSTYYADSVKGRFTISRDNAKNTVYLQMNSLKPEDTAVYYCAAAWRQSGYRYGYWGQGTQVTVSS | high polyreactivity
QVQLVESGGGLVQAGGSLRLSCAASGFIFGYNAMGWYRQAPGKERELVAAITWIGGTTYYADSVKGRFTISRDNAKNTVYLQMNSLKPEDTAVYYCARQRSYGRSSYSYGYDYWGQGTQVTVSS | high polyreactivity
QVQLVESGGGLVQAGGSLRLSCAASGFIFGYNAMGWYRQEPGKERELVARIRYRGARTYYADSVKGRFTISRDNAKNTVYLQMNSLKPEDTAVYYCAAVASWPGGYDYWGQGTQVTVSS | high polyreactivity
QVQLVESGGGLVQAGGSLRLSCAASGFIFGYNGMGWYRQAPGKERELVAGITYSDGSTYYADSVKGRFTISRDNAKNTVYLQMNSLKPEDTAVYYCAVDVIYYWAEDYDYWGQGTQVTVSS | low polyreactivity
QVQLVESGGGLVQAGGSLRLSCAASGFIFGYNTMGWYRQAPGKERELVAAISWSGGSTYYADSVKGRFTISRVNAKNSVYLQMNSLKPEDTAVYYCATVSRSYSELDYWGQGTQVTVSS | low polyreactivity
QVQLVESGGGLVQAGGSLRLSCAASGFIFGYYAMGWDRQAPGKERELVAAITSDGNTDYSDSVKGRFTISRDNAKNTVYLQMNSLKPEDTAVYYCATDWVDHYDYWGQGTQVTVSS | low polyreactivity
QVQLVESGGGLVQAGGSLRLSCAASGFIFGYYAMGWYRHAPGKERELVAAISYSGGSTYYADSVKGRFTISRDNAKNTVYLQMYSLKPEDTAVYYCAKYGQSNYDWGQGTQVTLSS | high polyreactivity
QVQLVESGGGLVQAGGSLRLSCAASGFIFGYYAMGWYRPAPGNERELVAAIDWSDGSTYYADSVKGRFTISRDNAKNTVYLQMNSLKPEDTAVYYSAVDTYSQQAGDYEYWGQGTQVTVSS | low polyreactivity
QVQLVESGGGLVQAGGSLRLSCAASGFIFGYYAMGWYRQAPGKERELVAAISRSGGRTYYADSVKGRFTISRDNAKNTVYLQMNSLKPEDTAVYYCAKGSNRSRGYYWGQGTQVTVSS | high polyreactivity
